The source of these data is patent US20170232076A1.

As a reminder, the Kd is the equilibrium constant for the complex coming apart.

Assay [1] addresses cation-independent mannose-6-phosphate receptor (CI-M6PR) on cells overexpressing CI-M6PR. The assay can be described thus: cellular uptake assay on cells overexpressing CI-M6PR, intracellular Naglu activity read-out.
Target sequence in this assay (P11717 41-2491): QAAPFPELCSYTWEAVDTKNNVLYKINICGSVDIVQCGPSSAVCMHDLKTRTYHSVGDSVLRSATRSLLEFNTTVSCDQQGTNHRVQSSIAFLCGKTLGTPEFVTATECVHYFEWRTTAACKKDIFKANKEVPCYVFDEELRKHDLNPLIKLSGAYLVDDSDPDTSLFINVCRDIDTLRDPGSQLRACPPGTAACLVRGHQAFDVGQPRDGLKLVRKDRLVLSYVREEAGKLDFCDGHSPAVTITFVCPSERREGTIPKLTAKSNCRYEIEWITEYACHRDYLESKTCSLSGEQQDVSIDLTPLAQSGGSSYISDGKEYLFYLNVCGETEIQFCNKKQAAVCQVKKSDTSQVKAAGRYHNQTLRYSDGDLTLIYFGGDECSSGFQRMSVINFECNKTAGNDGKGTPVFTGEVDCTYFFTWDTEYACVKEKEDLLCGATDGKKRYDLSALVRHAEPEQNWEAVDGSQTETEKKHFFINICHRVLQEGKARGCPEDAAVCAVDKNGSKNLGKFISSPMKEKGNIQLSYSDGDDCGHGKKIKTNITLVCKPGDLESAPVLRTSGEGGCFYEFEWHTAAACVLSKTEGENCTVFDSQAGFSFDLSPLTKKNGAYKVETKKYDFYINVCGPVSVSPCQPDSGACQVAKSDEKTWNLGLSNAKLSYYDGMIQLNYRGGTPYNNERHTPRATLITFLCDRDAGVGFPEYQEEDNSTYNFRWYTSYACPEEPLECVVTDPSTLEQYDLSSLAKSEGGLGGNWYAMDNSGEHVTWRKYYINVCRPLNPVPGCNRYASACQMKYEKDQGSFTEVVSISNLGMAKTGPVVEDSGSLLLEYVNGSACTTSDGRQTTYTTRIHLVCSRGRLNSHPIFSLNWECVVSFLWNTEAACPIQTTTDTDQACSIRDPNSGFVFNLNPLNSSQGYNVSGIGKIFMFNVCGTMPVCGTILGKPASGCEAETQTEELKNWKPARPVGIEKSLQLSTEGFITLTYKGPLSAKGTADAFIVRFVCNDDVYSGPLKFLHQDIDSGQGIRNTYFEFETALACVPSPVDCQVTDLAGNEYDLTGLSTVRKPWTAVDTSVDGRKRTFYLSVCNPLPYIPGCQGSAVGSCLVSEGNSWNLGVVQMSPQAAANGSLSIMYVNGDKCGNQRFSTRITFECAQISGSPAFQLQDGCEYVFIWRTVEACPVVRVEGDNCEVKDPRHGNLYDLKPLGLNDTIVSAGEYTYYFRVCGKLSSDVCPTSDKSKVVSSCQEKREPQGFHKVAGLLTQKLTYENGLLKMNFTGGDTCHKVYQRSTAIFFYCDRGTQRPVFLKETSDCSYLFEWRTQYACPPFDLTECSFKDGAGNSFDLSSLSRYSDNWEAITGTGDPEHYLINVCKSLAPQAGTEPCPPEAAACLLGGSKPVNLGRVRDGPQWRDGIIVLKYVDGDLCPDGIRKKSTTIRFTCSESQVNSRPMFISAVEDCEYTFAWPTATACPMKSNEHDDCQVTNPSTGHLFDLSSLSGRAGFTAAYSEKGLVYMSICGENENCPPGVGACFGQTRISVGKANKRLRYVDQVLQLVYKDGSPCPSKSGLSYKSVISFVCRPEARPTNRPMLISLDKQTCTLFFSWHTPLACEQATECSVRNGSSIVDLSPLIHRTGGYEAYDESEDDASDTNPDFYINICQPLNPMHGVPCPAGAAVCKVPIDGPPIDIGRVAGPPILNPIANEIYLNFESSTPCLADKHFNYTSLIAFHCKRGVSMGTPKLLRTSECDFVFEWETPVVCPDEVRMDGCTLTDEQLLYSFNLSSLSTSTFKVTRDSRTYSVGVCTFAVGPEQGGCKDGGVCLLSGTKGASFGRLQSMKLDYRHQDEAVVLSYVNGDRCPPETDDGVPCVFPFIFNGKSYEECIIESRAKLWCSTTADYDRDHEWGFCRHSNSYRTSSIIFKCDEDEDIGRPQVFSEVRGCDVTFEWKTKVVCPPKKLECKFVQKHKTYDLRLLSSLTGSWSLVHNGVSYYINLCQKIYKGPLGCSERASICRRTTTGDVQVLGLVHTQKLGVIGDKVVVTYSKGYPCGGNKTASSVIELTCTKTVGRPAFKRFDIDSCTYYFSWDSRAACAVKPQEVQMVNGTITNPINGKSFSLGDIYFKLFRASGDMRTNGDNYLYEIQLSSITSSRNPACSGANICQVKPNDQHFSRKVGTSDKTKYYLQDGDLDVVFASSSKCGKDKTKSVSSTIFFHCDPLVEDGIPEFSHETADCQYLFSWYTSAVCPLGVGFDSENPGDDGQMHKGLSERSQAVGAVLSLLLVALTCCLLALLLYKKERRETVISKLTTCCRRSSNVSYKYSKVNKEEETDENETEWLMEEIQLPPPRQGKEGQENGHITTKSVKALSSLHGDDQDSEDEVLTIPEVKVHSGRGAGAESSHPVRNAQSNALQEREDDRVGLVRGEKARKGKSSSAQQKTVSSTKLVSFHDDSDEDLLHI
Assay [2] shares this target. Put plainly: cellular uptake assay on cells overexpressing CI-M6PR, intracellular I2S enzyme activity read-out.

With “Naglu-LIF fusion protein (produced in HT-1080 cells) (enzyme)”, the Kd in assay [1] amounted to 178 nM.

On to “Naglu-LIF fusion protein produced in HT-1080 cells overexpressing GNPT (enzyme)”, for which the equilibrium dissociation constant (Kd) in assay [1] is 15 nM.

Take “recombinant iduronate 2-sulfatase (I2S) produced in HT-1080 cells co-overexpressing GNPT (from UniProt P22304 26-550) (enzyme)”: the Kd in assay [2] came out at 1.65 nM.

Regarding “recombinant iduronate 2-sulfatase (I2S) produced in HT-1080 cells overexpressing I2S alone (from UniProt P22304 26-550) (enzyme)”, in assay [2], the Kd was determined as 27.9 nM.
